# From paper PMC4832192, “Structural basis of DNA sequence recognition by the response regulator PhoP in Mycobacterium tuberculosis”
# Legend:
# PhoP Y205A = PhoP Y205A (Mycobacterium tuberculosis, UniProt P71814 1-247, Y205A); assay: ITC; 5 mM MgCl2; ITC: 20 mM HEPES pH 7.5, 100 mM NaCl, 5 mM MgCl2, 25 C, […]; conditions: protein: recombinant; tags: N-terminal His-tag removed with TEV; chain copies: 2
# PhoP L113D = PhoP L113D (Mycobacterium tuberculosis, UniProt P71814 1-247, L113D); assay: as above; conditions: protein: recombinant; tags: N-terminal His-tag removed with TEV; chain copies: 2
Binder,Kd (PhoP Y205A),Kd (PhoP L113D)
hisG (dsDNA) DNA 1: CGCGACCCGCAGCATGCTCACAGCTTTCGA DNA 2: TCGAAAGCTGTGAGCATGCTGCGGGTCGCG,114 ± 11.2 nM,117 ± 11.7 nM
DRs3 (3-bp spacer) (dsDNA) DNA 1: AAGTACCTCACAGCACTTCACAGCTTTCAT DNA 2: ATGAAAGCTGTGAAGTGCTGTGAGGTACTT,–,368 ± 52.2 nM
ahpC (dsDNA) DNA 1: TTTGCCTGACAGCGACTTCACGGCACGATG DNA 2: CATCGTGCCGTGAAGTCGCTGTCAGGCAAA,654 ± 57.2 nM,595 ± 51.4 nM
lpqA (dsDNA) DNA 1: GCACCTTCACCGCCCGCCCACAGCCACGCA DNA 2: TGCGTGGCTGTGGGCGGGCGGTGAAGGTGC,3080 ± 371 nM,2870 ± 541 nM
DR (dsDNA) DNA 1: ACGATTCACAGCTGATTCACAGCATCTACG DNA 2: CGTAGATGCTGTGAATCAGCTGTGAATCGT,21.8 ± 6.2 nM,26.2 ± 6.5 nM
